According to publication PMC314469, “Protein Interaction Networks by Proteome Peptide Scanning” (PLoS Biology, 2004):

T1: Yfr024 SH3 (LSB3_YEAST), P43603
T1 chain: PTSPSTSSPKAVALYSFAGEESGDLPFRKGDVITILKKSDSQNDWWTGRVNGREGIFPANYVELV

T2: Boi2 SH3 (BOI2_YEAST), P39969
T2 chain: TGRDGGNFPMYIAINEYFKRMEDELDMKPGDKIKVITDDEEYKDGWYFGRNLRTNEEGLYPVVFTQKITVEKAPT

T3: Boi1 SH3 (BOI1_YEAST), P38041
T3 chain: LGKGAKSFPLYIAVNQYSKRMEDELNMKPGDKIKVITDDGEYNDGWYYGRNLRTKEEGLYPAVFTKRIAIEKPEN

T4: Yhr016c SH3 (YSC84_YEAST), P32793
T4 chain: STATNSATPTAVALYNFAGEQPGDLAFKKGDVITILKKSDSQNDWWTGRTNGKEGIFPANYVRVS

T5: Rvs167 SH3 (RV167_YEAST), P39743
T5 chain: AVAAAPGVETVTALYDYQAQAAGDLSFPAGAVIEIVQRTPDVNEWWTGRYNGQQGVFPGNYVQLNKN


Assays:
Test in all cases: SPOT array
[1] = biological target: T1, Yfr024 SH3 (LSB3_YEAST), P43603
[2] = biological target: T2, Boi2 SH3 (BOI2_YEAST), P39969
[3] = biological target: T3, Boi1 SH3 (BOI1_YEAST), P38041
[4] = biological target: T4, Yhr016c SH3 (YSC84_YEAST), P32793
[5] = biological target: T5, Rvs167 SH3 (RV167_YEAST), P39743

normalised SPOT signal, Boehringer light units (BLU); mean over the file's lines of this peptide [1] | normalised SPOT signal, Boehringer light units (BLU); mean over the file's lines of this peptide [2] | normalised SPOT signal, Boehringer light units (BLU); mean over the file's lines of this peptide [3] | normalised SPOT signal, Boehringer light units (BLU); mean over the file's lines of this peptide [4] | normalised SPOT signal, Boehringer light units (BLU); mean over the file's lines of this peptide [5] | Binder
203 | 42.7 | 31.1 | 170 | 16.4 | GGDPTKPVRTWNDL [YEL056W 193-206]
313 | 76.3 | 68.4 | -0 | 42.7 | GAKPKIPSKLYQSV [YBR138C 124-137]
13900 | 78.2 | 0 | 9930 | 366 | GAPPTTPSRPRTTT [YGR170W 91-104]
6010 | 89.9 | 85.9 | 1930 | 794 | GGQPPVPVRMQPQP [YBR108W 379-392]
121 | 19.8 | 71.3 | 129 | 14.1 | FYEPLDPQKDKDMT [YJL155C 176-189]
47.2 | 17.2 | 104 | 154 | 75.6 | GAPPPPPHKDHLSD [YMR280C 206-219]
7090 | 2 | 128 | 119 | 28.4 | GGPPLLPQKSAAFQ [YPL084W 731-744]
292 | 44.1 | 867 | 36.3 | 28.6 | FYYPESPTKNLRPR [YML119W 56-69]
225 | 5.7 | 94.3 | 236 | 48.1 | GAIPRGPKKDDASF [YPR161C 424-437]
